*1 amine or outer side, *2 acyl side, *3 side chain or, on linkers, in order; H or OH if unused. Where a SMILES comes first, the peptide text is derived from it. Bridges are numbered along the chain shown (N, C = ends). Roman numbers before positions name the chains, in order. [ ]: non-standard residue; d: D form. X1 = N=c1ccc2c(-c3ccc(C(=O)NCCOCCOCCN(CCOCCOCCOCCn4cc(CCC(=O)[*:1])nn4)CCOCCOCCOCCn4cc(CCC(=O)[*:2])nn4)cc3C(=O)O)c3ccc(N)c(S(=O)(=O)O)c3oc-2c1S(=O)(=O)O; TATA = O=C(CC[*:1])N1CN(C(=O)CC[*:2])CN(C(=O)CC[*:3])C1; tBuAla = CC(C)(C)C[C@H](N)C(=O)O; Nle = CCCC[C@H](N)C(=O)O
Tests used:
[1] = target: T1, CD137 (Macaca fascicularis, UniProt A9YYE7); assay: Fluorescent multimer cyno immune cell direct binding assay (FACS); parameters: species or system cynomolgus monkey; details: FIG. 4
T1 construct: Cryopreserved PBMCs were purchased from Worldwide Primates and thawed according to standard protocol
Procedure: Cryopreserved PBMCs were purchased from Worldwide Primates and thawed according to standard protocol. CD8+ T cells were then isolated from the PBMCs with a MACS CD8+ T cell isolation kit (negative bead selection) according to the manufacturer's protocol (Miltenyi Biotec). Purified CD8+ T cells were then activated for 48 hours 96 well plates coated with CD3 antibody (1 μg/ml) in R10 media (RPMI1640+10% FBS+1× Pen-Strep). Cells were incubated in R10 media in the presence of fluorescent CD137 multimers or a fluorescent EphA2 bicyclic peptide monomer (BCY0215), which was used as a negative control, at different concentrations for 1 hour at 37° C. After 1 hour, cells were transferred to a V-bottom plate and washed and stained for FACs analysis. Briefly, cells were stained in 1× Live/Dead BV510 for 15 minutes, washed, and then surface stained with the following antibodies: CD8-BV785 and CD137-PECy5 (diluted 1:100 in 2% FBS/PBS). Cells were then washed and fixed in 2% paraformaldehyde (PFA). Cells were run on the BD FACSCelesta and FCS files were analyzed in FlowJo. Cells were gated on Single/Live/Lymphocytes/CD8+/CD137+ or CD137−. The FITC geometric mean of the CD137+ population is shown.

[2] = target: T2, CD137 (Homo sapiens, UniProt Q07011); assay: Fluorescent multimers human immune cell direct binding assay (FACS); details: FIG. 3A
T2 construct: Human peripheral blood mononuclear cells (PBMCs) were isolated from buffy coats from two donors; endogenous in cells
Procedure: Human peripheral blood mononuclear cells (PBMCs) were isolated from buffy coats from two donors according to standard protocols. PBMCs were used for the next step or alternatively CD8+ T cells were then isolated from the PBMCs with a MACS CD8+ T cell isolation kit (negative bead selection) according to the manufacturer's protocol (Miltenyi Biotec). PBMCs or purified CD8+ T cells were then activated for 24 hours in tissue culture flasks coated with CD3 antibody in R10 media (RPMI1640+10% FBS+1× Pen-Strep). Alternatively, cells were incubated in R10 media containing 1 μg/ml of soluble CD3 antibody (OKT3) for 24 hours. Cells were then transferred to CD3-coated 96-well flat bottom plates and incubated in R10 media in the presence of fluorescent CD137 multimers or a fluorescent EphA2 bicyclic peptide monomer (BCY0215), which was used as a negative control, at different concentrations for 1 hour at 37° C. After 1 hour, cells were transferred to a V-bottom plate and washed and stained for FACs analysis. Briefly, cells were stained in 1× Live/Dead BV510 for 15 minutes, washed, and then surface stained with the following antibodies: CD8-BV785 (or CD3-BV605) and CD137-PECy5 (diluted 1:100). Cells were then washed and fixed in 2% paraformaldehyde (PFA). Cells were run on the BD FACSCelesta and FCS files were analyzed in FlowJo. […]

[3] = target: T2, CD137; assay: BCY15416 direct binding to CD4 and CD8 positive T-cells (CD3 stimulated PBMCs, flow cytometry)
Procedure: To evaluate the affinity of a CD137 dimeric Bicycle® peptide conjugated to Alexa Fluor® 488, herein referred to as BCY15416, a binding assay utilizing CD3 stimulated primary peripheral blood mononuclear cells (PBMCs) was implemented.
On the day of the experiment, medium was prepared by supplementing RPMI-1640 (Gibco™ 11875-093; with L-glutamine) with 10% heat-inactivated fetal bovine serum (FBS; Corning® 35-011-CV), 10 mM HEPES (Gibco™ 15-630-080), and 1% Penicillin Streptomycin (Corning™ 30-002-CI), herein referred to as working medium. Previously isolated human peripheral blood mononuclear cells (PBMCs), from whole blood, were quick thawed in a water bath and washed once at 500 rpm for 5 minutes in 10 mL of prewarmed working medium. PBMC pellet was then resuspended in working medium at a concentration of 3×10^6 cells/mL. Subsequently, 100 μL of cell suspension was plated in a flat-bottom tissue-culture coated 96-well plate (Greiner CellStar® 655180). Anti-human CD3 (200 ng/mL; BioLegend® 317347; clone OKT3) was added to the cell plate (100 μL/well) at a final concentration of 100 ng/mL Whereas, for unstimulated controls 100 μL of working medium was added. Cells were incubated overnight (12-24 hours) at 37° C., 5% CO2.
Plates were then incubated for 1 hour at 37° C., 5% CO2. Post-incubation, plate was centrifuged at 500 rpm for 5 minutes and supernatant discarded. Samples were then washed once in 200 μL of 1× phosphate buffer saline (PBS; Gibco™ 10-010-023) at 500 rpm for 5 minutes. Cells were resuspended in 200 μL of PBS and transferred to a 96-well V-bottom polypropylene plate (Greiner Bio-One 651201). Samples were then centrifuged at 500 rpm for 5 minutes and supernatant was discarded.
Preparation of samples for flow cytometry: Zombie Violet™ Fixable Viability Dye (BioLegend® 423113) was prepared as a 1:1000 dilution in PBS and 100 μL of viability dye was added to each well and incubated in the dark at 4° C. for 30 minutes. Subsequently, wells were washed with 100 μL of PBS for 5 minutes at 500 rpm and supernatant was discarded. Next, human TruStain FcX™ block (BioLegend® 422302) was prepared by diluting 1.5 μL of FcX in 25 μL of stain buffer (1×PBS supplemented with 2% FBS). Fc block solution (25 μL/well) was incubated at room temperature (RT) for 10 minutes in the dark. […] Cells resuspended in 200 μL of stain buffer were kept at 4° C. and in the dark until read by BD FACSCelesta™ flow cytometer and FCS files were analyzed in FlowJo™.
Cells were gated on lymphocytes→singlets→live→CD4+ or CD8+→CD137+/− and the geometric mean of Alexa Fluor® 488 (conjugated to BCY15416) was calculated from the CD137+ and CD137− populations shown below. […] Calculated binding affinity (kd,app) for each donor appear in Table 5.

[4] = target: T3, human CD137 (human, UniProt Q07011 24-255); assay: flow cytometry, direct binding to activated human CD8+/CD137+ T cells
T3 construct: whole, on cells; Endogenous receptor on CD3-stimulated human PBMCs or purified CD8+ T cells; also called CD137 receptor; 4-1BB
T3 sequence (Q07011 24-255): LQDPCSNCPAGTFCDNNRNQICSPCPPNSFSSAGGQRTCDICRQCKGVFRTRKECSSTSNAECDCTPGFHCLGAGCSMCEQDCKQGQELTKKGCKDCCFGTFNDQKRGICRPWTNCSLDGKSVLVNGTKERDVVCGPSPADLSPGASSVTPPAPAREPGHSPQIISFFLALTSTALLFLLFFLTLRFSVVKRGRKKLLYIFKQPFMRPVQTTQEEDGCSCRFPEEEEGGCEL

T2 sequence (Q07011 24-255): as above
T1 sequence (A9YYE7 1-254): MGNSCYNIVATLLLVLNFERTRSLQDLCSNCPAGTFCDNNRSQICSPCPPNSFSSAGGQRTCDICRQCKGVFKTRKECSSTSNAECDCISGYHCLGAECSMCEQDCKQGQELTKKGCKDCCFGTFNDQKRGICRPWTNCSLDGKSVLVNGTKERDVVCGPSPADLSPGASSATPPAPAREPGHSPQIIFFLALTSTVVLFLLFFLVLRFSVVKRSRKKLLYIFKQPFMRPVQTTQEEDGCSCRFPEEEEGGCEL

With “BCY7340: Fluorescent CD137 dimer: formula (II), CHM C, 2 x BCY7077, SA n=23, fluorescein modifier (CIEEGQYCFADPYMCAX; not fully specified; non-natural residues; cyclised or stapled)” as the molecule, how does the “binding potency relative to fluorescent trimer (BCY9932) and tetramer (BCY9931)” value ([1]; cyno CD137+ T cells) read?
The value was “less potent binding”.

And the “binding to cyno CD137+ T cells (FITC geometric mean)” value ([1]; purified CD8+/CD137+ T cells from cynomolgus monkey PBMCs, 1 hour at 37° C.)?
The value was “bind to cyno CD137+ T cells in a dose responsive manner”.

And the “binding potency relative to fluorescent trimer (BCY9932) and tetramer (BCY9931)” value ([2]; human CD137+ T cells)?
Its value is “slightly less potent binding”.

And the “binding to human CD137+ T cells (FITC geometric mean)” value ([2]; purified CD8+/CD137+ T cells from human PBMCs, 1 hour at 37° C.)?
The value was “bind to human CD137+ T cells in a dose responsive manner”.

Which results are given for `CCCC[C@@H]1NC(=O)[C@H](Cc2ccc(O)cc2)NC(=O)[C@@H]2CCCN2C(=O)[C@H](CC(=O)O)NC(=O)[C@H](C)NC(=O)[C@H](Cc2ccccc2)NC(=O)[C@@H]2CSCCC(=O)N3CN(CN(C3)C(=O)CCSC[C@@H](C(=O)N[C@@H](C)C(N)=O)NC1=O)C(=O)CCSC[C@H](NC(C)=O)C(=O)N[C@@H](CC(C)(C)C)C(=O)N1CCC[C@H]1C(=O)N[C@@H](CCC(=O)O)C(=O)N[C@H](CCCCNC(=O)CCc1cn(CCOCCOCCOCCN(CCOCCOCCNC(=O)c3ccc(-c4c5ccc(=N)c(S(=O)(=O)O)c-5oc5c(S(=O)(=O)O)c(N)ccc45)c(C(=O)O)c3)CCOCCOCCOCCn3cc(CCC(=O)NCCCC[C@H]4NC(=O)[C@H](CCC(=O)O)NC(=O)[C@@H]5CCCN5C(=O)[C@H](CC(C)(C)C)NC(=O)[C@@H](NC(C)=O)CSCCC(=O)N5CN6CN(C5)C(=O)CCSC[C@H](NC(=O)[C@H](Cc5ccc(O)cc5)NC(=O)[C@@H]5CCCN5C4=O)C(=O)N[C@@H](Cc4ccccc4)C(=O)N[C@@H](C)C(=O)N[C@@H](CC(=O)O)C(=O)N4CCC[C@H]4C(=O)N[C@@H](Cc4ccc(O)cc4)C(=O)N[C@@H](CCCC)C(=O)N[C@H](C(=O)N[C@@H](C)C(N)=O)CSCCC6=O)nn3)nn1)C(=O)N1CCC[C@H]1C(=O)N[C@@H](Cc1ccc(O)cc1)C(=O)N2` [BCY15416] (I: Ac-C[tBuAla]PE[dK]PYCFADPY[Nle]CA-NH2 / II: Ac-C[tBuAla]PE[dK]PYCFADPY[Nle]CA-NH2; linker I:1-I:8-I:15, II:1-II:8-II:15 via TATA; linker I:5-II:5 via X1; C-terminus assumed)?
binding to CD137+ T-cells (Alexa Fluor 488 geometric mean) ([3]; CD137+CD4+ and CD137+CD8+ T-cells, three human PBMC donors, FIG. 6): binding exclusively to the CD137+CD4+ T-cells and CD137+CD8+ T-cells, in a dose-dependent manner; binding to CD137− T cells ([3]; CD137− CD4 and CD8 T cells, FIGS. 6A and 6B): does not bind; binding affinity in CD137− populations ([3]; CD137− populations for both CD4+ and CD8+): unable to be calculated; binding affinity (range in words) ([3]; both CD137+CD4+ and CD137+CD8+ populations): sub-nanomolar range

B1: BCY9931 (peptide)
peptide: ACIEEGQYCFADPYXCX
modifications: N-terminal acetyl; Nle (norleucine) at position 12 of the core; C-terminal Dap(Lys(PYA)) amide (CONH2); the three Cys (Ci, Cii, Ciii) cyclised on the TATA scaffold; joined through PYA to spacer SA (n = 23) on central hinge moiety A; Alexa Fluor 488 conjugated to one of the four peptides (formula (I))
notes: also called fluorescent CD137 multimer; fluorescent tetramer
Does B1 bind [4]?
Result: binds

Source: patent publication US20220275053A1, “MODIFIED […] PEPTIDE LIGANDS” (BicycleTx Limited, priority 2019, published 2022)
